The values below come from the supplement of paper PMC12042874.

± gives the uncertainty stated by the source.

This data set is described as follows: amyloid nucleation score (Sup35N fusion, yeast selection) (log enrichment); library NNK1; higher = more nucleation; inactive = no reads after selection. The essentials:
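The nucleation score is the log enrichment of output over input reads, calculated with DiMSum and centred on the mode score of non-aggregating sequences. Sequences with under 100 input reads were excluded. Reads came from Illumina sequencing of plasmid inserts from psi-negative yeast expressing Sup35N fused to peptides of 20 random codons, induced 24 hours with 100 μM copper sulfate and grown 7 days at 30°C without adenine and uracil.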
QSETDQIFEVFFSDWHSCTK yielded an amyloid nucleation score of 0.777 ± 0.97.

Consider QSWHEWDM, for which the amyloid nucleation score entry is “inactive”.

On to QTCAYGLRNTTSTVCLYRWG, for which the amyloid nucleation score is 0.294 ± 0.53.

In turn, QTFSNPFFVLYLSNRLIPKV returned an amyloid nucleation score of 1.82 ± 0.29.

QTNKLEGVANSGKIITNKSG displayed an amyloid nucleation score of 0.021 ± 0.97.

QTSIWFGDYYRKLSLCWHRP yielded an amyloid nucleation score of 3.63 ± 0.097.

QTTTLYRFCCEWQSPASVVM returned an amyloid nucleation score of 0.333 ± 0.97.

On to QVFKHGSPGHMLALCQRAV, for which the amyloid nucleation score came to 1.39 ± 0.63.

QVRGSASYSVHWINELFFKQ gave an amyloid nucleation score of 1.64 ± 0.32.

QVSANSKNKSVVLFQIKSNE: the amyloid nucleation score is -0.17 ± 0.4.

For QVTRYYGGNAVR, the amyloid nucleation score amounted to 1.59 ± 0.57.

As for QVWWDVNEPPDLTPQGSRWG, the amyloid nucleation score entry was “inactive”.

In turn, QVYLILTEMRMTF yielded an amyloid nucleation score of 1.4 ± 0.13.

As for QWGRMPMFLIDRTGGWASMG, the amyloid nucleation score was 0.409 ± 0.32.

With QWRFKVRVHVEVSSSGVCSI, the amyloid nucleation score entry is “inactive”.

Take QYSRLESLLM: the amyloid nucleation score was 0.483 ± 0.39.

Take RAAKF: the amyloid nucleation score is -1.15 ± 0.58.

The substance RACGYYCKSLCPGCKTCLSR showed an amyloid nucleation score of 0.005 ± 1.7.

In turn, RAGQVRNNDTSVEFAMCGRW came in with an amyloid nucleation score of 0.355 ± 0.38.

In turn, RAIIGFSLSQRGYLPNTDLR returned an amyloid nucleation score of 3.1 ± 0.095.

As to RARLNRFVICVSLDMLVLWM, the amyloid nucleation score was -0.709 ± 0.45.

In turn, RARWDPFLMCYLTVVWTSFV gave an amyloid nucleation score of -0.12 ± 0.29.

RASDRSSIMICF: the amyloid nucleation score worked out at 0.382 ± 1.4.

RATQLF registered an amyloid nucleation score of 1.81 ± 0.67.

On to RAVRVMRLSSGLSLGRPSDW, for which the amyloid nucleation score result was “inactive”.

RCGFSLNFC came in with an amyloid nucleation score of 3.2 ± 0.097.

Substance RCGLWV yielded an amyloid nucleation score of -0.217 ± 0.78.

Regarding RCGSPSAHNSIYMR, the amyloid nucleation score was determined as 1.34 ± 0.32.

RCKFESVKRVS registered an amyloid nucleation score of 1.42 ± 0.54.

RCLVFTLKRV: the amyloid nucleation score was found to be 0.358 ± 0.61.

The substance RCMMPYGESKSGVLMGRYSY gave an amyloid nucleation score of 0.393 ± 0.31.

Turning to RCTGLRLRVLGAILIFIHYV, the amyloid nucleation score result is “inactive”.

In turn, RCYFAWPEWLGYGCVVMERG gave an amyloid nucleation score of -0.435 ± 0.52.

The substance RCYKSLVGMNTHKSAAVVER gave an amyloid nucleation score of 0.011 ± 0.27.

The substance RCYSVRCTFQVDYARIHANE had an amyloid nucleation score of 1.99 ± 0.17.

With RDDDPYVQDRPLRDFVFKKY, the amyloid nucleation score was -0.472 ± 0.35.

RDPYFRQCTEKQI yielded an amyloid nucleation score of 1 ± 0.85.

For RDVCLQSGMVVFYF, the amyloid nucleation score is 6.905 ± 0.061.

Substance RDWKSFSVCVFLIFIACNTG displayed an amyloid nucleation score of -0.605 ± 0.4.

Turning to RECFRQANFCFMGLSTLGKS, the amyloid nucleation score is -0.88 ± 0.79.

In turn, REEAVSVGHSRFGFWIVFGG registered an amyloid nucleation score of -0.264 ± 0.36.

REGNVSYYSFGL returned an amyloid nucleation score of -1.48 ± 1.4.

Consider RELNSRPVFYLLGMDQSIGA, for which the amyloid nucleation score was 4.43 ± 0.14.

In turn, REPIYFSVSMIWGTLASPVT had an amyloid nucleation score of -0.447 ± 0.98.

The substance RERVISVWGL came in with an amyloid nucleation score of -0.197 ± 0.45.

Consider RETIPCVEVFTHRSLDFL, for which the amyloid nucleation score is 1.15 ± 0.83.

Substance REVSMRDGGPVT displayed an amyloid nucleation score of 0.298 ± 0.54.

The substance REVSVVNLYRCFDGIRSKLT returned an amyloid nucleation score of 0.219 ± 0.23.

In turn, REWSSYRIVRWYEMCYISTS yielded an amyloid nucleation score of -0.158 ± 0.84.

RFARHCSRIS yielded an amyloid nucleation score of 0.769 ± 0.36.

RFEWLCGVFSGALPKGAWLK: the amyloid nucleation score was -0.144 ± 0.37.

Regarding RFFGFS, the amyloid nucleation score was -0.63 ± 1.1.

Regarding RFFISYTFSWPRYLVGKDLL, the amyloid nucleation score was -0.936 ± 0.34.

Turning to RFFNTRSGKSWPLKYLTEFF, the amyloid nucleation score was found to be 0.042 ± 0.34.

RFFYWG had an amyloid nucleation score of 0.375 ± 1.2.

As for RFILPVVGSSHLINSLADSL, the amyloid nucleation score was -0.8 ± 1.4.

For the substance RFIWFLVYVNTCYARC, the amyloid nucleation score turned out to be 2.86 ± 0.25.

In the case of RFIYE, the amyloid nucleation score is -0.543 ± 0.82.

Take RFLTGCICAQSLRQLTS: the amyloid nucleation score is -0.075 ± 0.48.

With RFMKPTMVWL, the amyloid nucleation score was 0.005 ± 1.4.

The substance RFMSTSLFLMVSNELLSPLM returned an amyloid nucleation score of 1.27 ± 0.16.

In the case of RFMTHLVRRLYAFGMSF, the amyloid nucleation score result is “inactive”.

As to RFQGGWSRF, the amyloid nucleation score worked out at 3.68 ± 0.11.

For RFRNGLNLFRMSNMFSNLKH, the amyloid nucleation score is -0.129 ± 1.1.

With RFRVEGPMYFICICKRLFTY, the amyloid nucleation score is -0.555 ± 0.44.

Substance RFVIVEVSWLDSLLRLSWED had an amyloid nucleation score of 0.277 ± 0.99.

RFVLKYSSFFMFTIRWCVVV came in with an amyloid nucleation score of -0.027 ± 0.44.

Substance RFYIGIVIQRTYGRC registered an amyloid nucleation score of 2.79 ± 0.071.

RGEILCWWIGFYFVAVK gave an amyloid nucleation score of 0.149 ± 0.32.

RGGGAEKLLQSTCNSYVVWL showed an amyloid nucleation score of 3.66 ± 0.061.

RGGNLSRAFNYVRYIITHKN: the amyloid nucleation score worked out at 0.145 ± 0.46.

In the case of RGILNRVTLILDLRVHSSSD, the amyloid nucleation score was determined as 0.504 ± 0.32.

On to RGITNCVQCPVIPWFLRYYG, for which the amyloid nucleation score is -0.401 ± 0.31.

RGRDHCYTTDWNGYRVMVPL gave an amyloid nucleation score of 0.58 ± 0.51.

Turning to RGSTLSGVYCAENRASGFDS, the amyloid nucleation score came to 0.93 ± 0.33.

The substance RGSVIWRRRWTTESWSSYFG came in with an amyloid nucleation score of 1.25 ± 0.72.

RGYMCHCRVVSACFLYRKVQ registered an amyloid nucleation score of -0.044 ± 0.25.

In turn, RGYQNSLFTGMRRSSGSWSI had an amyloid nucleation score of 0.43 ± 0.77.

The substance RGYSSTPRFVNIACYMVQSL came in with an amyloid nucleation score of 2.45 ± 0.26.

Turning to RHADIWSDFPR, the amyloid nucleation score was found to be 1.53 ± 0.7.

With RHFRMGRHRFEGWVLTGASG, the amyloid nucleation score amounted to 0.194 ± 0.38.

In turn, RHKYMWM displayed an amyloid nucleation score of 1.46 ± 0.81.

In turn, RHRDLGWRVIRWRAFMTSLW gave an amyloid nucleation score of -1.31 ± 2.1.

RHWDIRSGHNLWQMVG returned an amyloid nucleation score of -0.55 ± 0.38.

Regarding RIFFYTISYPLILIKVFCYL, the amyloid nucleation score result is “inactive”.

For the substance RIGGETGCV, the amyloid nucleation score was 0.216 ± 0.27.

The substance RIHRVHRKF had an amyloid nucleation score of -0.33 ± 0.38.

On to RIIITLH, for which the amyloid nucleation score was 0.264 ± 0.31.

The substance RIILGETGAALWWRI had an amyloid nucleation score of 4.61 ± 0.079.

In the case of RIISRCFVMDVWFERQYVTR, the amyloid nucleation score was 1.96 ± 0.18.

RIKYAWFCVFGTWNRIRVRI yielded an amyloid nucleation score of 1.1 ± 0.68.

On to RILCHLTNRWFEFDEVLVGV, for which the amyloid nucleation score was 0.835 ± 0.48.

Turning to RILRDQTWIPSMATDSILVC, the amyloid nucleation score is -1.23 ± 0.79.

RIMMMGQLTFVYMGQHSSMV displayed an amyloid nucleation score of -0.062 ± 0.57.

With RINVYII, the amyloid nucleation score came out at 3.25 ± 0.19.

On to RISYTDCMVEQLHPNQLWQN, for which the amyloid nucleation score was -0.069 ± 0.52.

With RIWSLRPFRSEYLRVCFFVS, the amyloid nucleation score was determined as 0.437 ± 0.78.

RIYLRFYLIIR showed an amyloid nucleation score of 1.07 ± 0.85.

In the case of RKALYA, the amyloid nucleation score is -0.117 ± 0.38.

On to RKFVC, for which the amyloid nucleation score was -0.729 ± 1.7.

Consider RKRSSRVIDVTGRWAVLTYP, for which the amyloid nucleation score came out at 0.074 ± 0.46.

With RKSEGIDVCGYNISAIYFKC, the amyloid nucleation score stood at 0.142 ± 0.64.

RKYQQGSLHDSGIKNHFFRV had an amyloid nucleation score of -0.97 ± 1.7.

RLASMREHLVWYRRGFRVCC registered an amyloid nucleation score of 0.725 ± 0.58.
